In article PMC9071465:

Assays:
[1] = target: At-HIGLE (HYL-1 Interacting GIY-YIG Like Endonuclease) from Arabidopsis thaliana, full length (Arabidopsis thaliana); assay: SEC; Sephacryl 16/60 S-200, 20 mM Tris-HCl (pH 8.5), 5% glycerol, 5 mM beta-mercaptoethanol, 0.5 M NaCl; calibrated with gel filtration markers; oligomeric state from a standard curve
[2] = target: At-HIGLE^184-368 (C-terminal region of At-HIGLE) (Arabidopsis thaliana); assay: SEC; Sephacryl 16/60 S-100, 20 mM Tris-HCl (pH 8.5), 5% glycerol, 5 mM beta-mercaptoethanol, 0.5 M NaCl; calibrated with gel filtration markers; oligomeric state from a standard curve

Row | stoichiometry N [1] | stoichiometry N [2] | Substance
1 | 2 |  | At-HIGLE (HYL-1 Interacting GIY-YIG Like Endonuclease) from Arabidopsis thaliana, full length (enzyme)
2 |  | 2 | At-HIGLE^184-368 (C-terminal region of At-HIGLE) (domain or fragment)
